Measured values taken from patent publication CN114805589A.

Columns and labels:
绵羊IgG (绵羊 (sheep)) [1] = test: direct magnetic-particle chemiluminescence, IgG on magnetic particles, HRP-labelled 4C-1 at 1:4000
山羊IgG (山羊 (goat)) [2] = test: as above
牛IgG (牛 (bovine)) [3] = test: as above
绵羊IgG (绵羊 (sheep)) [4] = test: indirect ELISA, IgG coated at 1 ug/mL, HRP goat anti-mouse IgG detection, OD450; conditions: scale: reciprocal dilution
山羊IgG (山羊 (goat)) [5] = test: as above; conditions: scale: reciprocal dilution
牛IgG (牛 (bovine)) [6] = test: as above; conditions: scale: reciprocal dilution

B1: 鼠单克隆抗体 二抗4C-1 (antibody, part only; not given: Light chain variable domain, V domains shown, part only)
VH: QVQLKQSGPELVKPGASVKMSCKASGYTFTSYVIHWVKQKPGQGLEWIGYINPYNDNTEYNEKFKGKATLTSDKSSSTAYMELSSLTSEDSAVYYCARREGGYYVFTYWGQGTLVTVSA
Q: Which 发光值 (luminescence value) (绵羊IgG (绵羊 (sheep)) [1]) does the source give for B1 here?
A: Its 发光值 (luminescence value) is > 100000 发光值.

Q: What about the 发光值 (luminescence value) (山羊IgG (山羊 (goat)) [2]) of the same binder?
A: Its 发光值 (luminescence value) is > 100000 发光值.

Q: And the 发光值 (luminescence value) (牛IgG (牛 (bovine)) [3])?
A: The 发光值 (luminescence value) was > 100000 发光值.

Q: What about the 效价 (titer) (绵羊IgG (绵羊 (sheep)) [4]) of the same binder?
A: Its 效价 (titer) is > 256000.

Q: And the 效价 (titer) (山羊IgG (山羊 (goat)) [5])?
A: Its 效价 (titer) is > 256000.

Q: And the 效价 (titer) (牛IgG (牛 (bovine)) [6])?
A: The 效价 (titer) was > 256000.
